Consider three molecules from publication PMC5634496 (Nature Communications, 2017).

Data set [1] deals with the molecule itself. The data set is described as follows: native gel or EMSA; proteins purified on anti-Flag M2 magnetic beads, eluted, resolved on 10% native gel, immunoblot with Flag antibody.
The target of the next data set is T1, GST-Ubc13 (UniProt P61088 1-152).
T1 construct: Ubc13 (UBE2N), cDNA in pGEX-4T-1; The end of GST is read from the printed name GST-Ubc13; also called UBE2N; source: E. coli BL21(DE3/pLys), purified (glutathione sepharose beads); not shown: GST, N-terminal, kept
T1 sequence (looked up): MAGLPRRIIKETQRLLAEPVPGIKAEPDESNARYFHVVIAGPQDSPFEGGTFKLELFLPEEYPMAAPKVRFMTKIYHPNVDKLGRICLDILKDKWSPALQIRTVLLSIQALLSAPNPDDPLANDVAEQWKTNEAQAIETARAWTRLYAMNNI
The experiment in a line: pull-down; purified GST-Ubc13 (or GST) mixed with purified TRAF6 fragments and glutathione sepharose beads in lysis buffer A (20 mM Tris-HCl pH 7.4, 150 mM NaCl, 0.5% NP-40, 10% glycerol), 4 °C, 60 min; immunoblot. Particulars: both partners purified. (In western blotting, separated proteins are transferred to a membrane and probed.)

B1: TRAF6 mutant M4 (V315A, R316A, H319A), Flag-tagged (natural protein, mouse, UniProt P70196-1 1-530, looked up)
chain: MSLLNCENSCGSSQSSSDCCAAMAASCSAAVKDDSVSGSASTGNLSSSFMEEIQGYDVEFDPPLESKYECPICLMALREAVQTPCGHRFCKACIIKSIRDAGHKCPVDNEILLENQLFPDNFAKREILSLTVKCPNKGCLQKMELRHLEDHQVHCEFALVNCPQCQRPFQKCQVNTHIIEDCPRRQVSCVNCAVSMAYEEKEIHDQSCPLANIICEYCGTILIREQMPNHYDLDCPTAPIPCTFSVFGCHEKMQRNHLARHLQENTQLHMRLLAQAVHNVNLALRPCDAASPSRGCRPEDPNYEETIKQLESRLAAQDAQIRELTAKMETQSMYVGELKRTIRTLEDKVAEMEAQQCNGIYIWKIGNFGMHLKSQEEERPVVIHSPGFYTGRPGYKLCMRLHLQLPTAQRCANYISLFVHTMQGEYDSHLPWPFQGTIRLTILDQSEALIRQNHEEVMDAKPELLAFQRPTIPRNPKGFGYVTFMHLEALRQGTFIKDDTLLVRCEVSTRFDMGGLRKEGFQPRSTDAGV
notes: TRAF6, mouse, mutant M4 in the CC domain; they may differ (MBP fusion, T6RZC background); also called TRAF6-M4; source: co-IP: Flag-tagged with Myc-tagged TRAF6 WT
B1: in data set [1], the binding result is “binds”.

B2: TRAF6 mutant M5 (deletion of amino acids 313-319), Flag-tagged (natural protein, mouse, UniProt P70196-1 1-530, looked up)
chain: MSLLNCENSCGSSQSSSDCCAAMAASCSAAVKDDSVSGSASTGNLSSSFMEEIQGYDVEFDPPLESKYECPICLMALREAVQTPCGHRFCKACIIKSIRDAGHKCPVDNEILLENQLFPDNFAKREILSLTVKCPNKGCLQKMELRHLEDHQVHCEFALVNCPQCQRPFQKCQVNTHIIEDCPRRQVSCVNCAVSMAYEEKEIHDQSCPLANIICEYCGTILIREQMPNHYDLDCPTAPIPCTFSVFGCHEKMQRNHLARHLQENTQLHMRLLAQAVHNVNLALRPCDAASPSRGCRPEDPNYEETIKQLESQIRELTAKMETQSMYVGELKRTIRTLEDKVAEMEAQQCNGIYIWKIGNFGMHLKSQEEERPVVIHSPGFYTGRPGYKLCMRLHLQLPTAQRCANYISLFVHTMQGEYDSHLPWPFQGTIRLTILDQSEALIRQNHEEVMDAKPELLAFQRPTIPRNPKGFGYVTFMHLEALRQGTFIKDDTLLVRCEVSTRFDMGGLRKEGFQPRSTDAGV
notes: TRAF6, mouse, mutant M5: one complete heptad unit of the CC domain deleted; they may differ; also called TRAF6-M5; source: co-IP: Flag-tagged with Myc-tagged TRAF6 WT
Turning to B2, the binding result in data set [1] was “binds”.

B3: CC-Flag (TRAF6 coiled-coil domain) (domain or fragment, mouse, UniProt P70196-1 296-400, looked up)
chain: CRPEDPNYEETIKQLESRLVRQDHQIRELTAKMETQSMYVGELKRTIRTLEDKVAEMEAQQCNGIYIWKIGNFGMHLKSQEEERPVVIHSPGFYTGRPGYKLCMR
notes: TRAF6 CC domain, mouse; the limits 296-400 aa are printed in the methods for the CC domain cloned with an MBP tag for E. coli; The end of Flag is read from the printed name CC-Flag; also called CC domain; CC WT; not shown: Flag, C-terminal, kept
On to B3, for which, in the data set with GST-Ubc13, the binding result was “binds”.
